# According to patent publication US20030211076A1, “Compositions and methods for treatment of proliferative disorders” (priority 2003, published 2003):
# T1: lysyl oxidase (LO) (Bos taurus, UniProt P33072)
# T1 construct: per mature LO molecule (32 kD); from tissue
# T1 sequence (P33072 170-418): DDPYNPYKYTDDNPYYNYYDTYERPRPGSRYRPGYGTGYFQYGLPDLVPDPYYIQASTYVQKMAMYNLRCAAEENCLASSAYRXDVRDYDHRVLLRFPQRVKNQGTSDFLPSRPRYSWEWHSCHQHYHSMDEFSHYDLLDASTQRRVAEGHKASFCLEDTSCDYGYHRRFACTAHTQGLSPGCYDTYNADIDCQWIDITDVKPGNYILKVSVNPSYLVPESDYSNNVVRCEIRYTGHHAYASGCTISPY
# B1: FGF4: human recombinant fibroblast growth factor 4 (R & D Systems) (protein, UniProt P08620 31-206, looked up)
# Fibroblast growth factor 4: APTAPNGTLEAELERRWESLVALSLARLPVAAQPKEAAVQSGAGDYLLGIKRLRRLYCNVGIGFHLQALPDGRIGGAHADTRDSLLELSPVERGVVSIFGVASRFFVAMSSKGKLYGSPFFTDECTFKEILLPNNYNAYESYKYPGMFIALSKNGKTKKGNRVSPTMKVTHFLPRL
# B2: FGF6: human recombinant fibroblast growth factor 6 (R & D Systems) (protein, UniProt P10767 38-208, looked up)
# Fibroblast growth factor 6: SPAGTRANNTLLDSRGWGTLLSRSRAGLAGEIAGVNWESGYLVGIKRQRRLYCNVGIGFHLQVLPDGRISGTHEENPYSLLEISTVERGVVSLFGVRSALFVAMNSKGRLYATPSFQEECKFRETLLPNNYNAYESDLYQGTYIALSKYGRVKRGSKVSPIMTVTHFLPRI
# B3: FGF5: human recombinant fibroblast growth factor 5 (R & D Systems) (protein, UniProt P12034 21-268, looked up)
# Fibroblast growth factor 5: HGEKRLAPKGQPGPAATDRNPRGSSSRQSSSSAMSSSSASSSPAASLGSQGSGLEQSSFQWSPSGRRTGSLYCRVGIGFHLQIYPDGKVNGSHEANMLSVLEIFAVSQGIVGIRGVFSNKFLAMSKKGKLHASAKFTDDCKFRERFQENSYNTYASAIHRTEKTGREWYVALNKRGKAKRGCSPRVKPQHISTHFLPRFKQSEQPELSFTVTVPEKKKPPSPIKPKIPLSAPRKNTNSVKYRLKFRFG
# Biological target: T1, lysyl oxidase (LO)
# Test: LO-dependent H2O2 release, horseradish peroxidase-coupled fluorescence assay (substrate potential for LO)
# Assay type: biochemical
# Settings: factor as sole substrate, LO-dependent H2O2 release in vitro
# Experimental: The oxidation of a primary amine substrate by LO yields stoichiometric amounts of the corresponding aldehyde, hydrogen peroxide and ammonia, as shown: RCH2NH2+O2+H2O→RCHO+H2O2+NH3 (Kagan, 1986). To assess the substrate potential of FGF2, LO-dependent H2O2 release was monitored in assays using FGF2 as the sole substrate, using both the optimum temperature for LO activity of 55° C. and the physiological temperature of 37° C. (Trackman et al., 1981).
# LO reaction with FGF2 as a substrate was assessed by a horseradish peroxidase-coupled fluorescence assay for H2O2 production. Reaction mixtures contained 0.25 mg of sodium homovanillate(HVA), 40 μg of HRP, and FGF2 at doses as indicated below in 0.05 M sodium borate buffer, pH 8.2, in a final volume of 2 ml. Assays were initiated by the addition of LO to reaction mixtures. H2O2 release was continuously monitored at excitation and emission wavelengths of 315 and 425 nm, respectively, at a constant temperature of 55° C. or 37° C., as specified, in the thermostatted cuvette chamber of an SLM Aminco Bowman Series 2 Luminescence Spectrometer. All activity data were corrected for background rates of H2O2 release determined in complete assay mixtures supplemented with 200 μM BAPN, an irreversible inhibitor of LO. In FIG. 4, solid curves represent the time course of H2O2 release at 55° C. in the reaction of 0.16 μM LO with 0.23 (a), 0.45 (b) and 0.9 (c) μM FGF2, respectively. Dotted curve (d) represents the time course of H2O2 release in the reaction of 0.16 μM LO with 0.9 μM FGF2 at 37° C. The same data were obtained from three separate experiments.
# Using the fluorometric assay (Trackman et al., 1981) to monitor LO-dependent H2O2 release in vitro, the substrate potential of other growth factors was also assessed. Major members of the FGF family tested included FGF 1, 4, 5, 6, 7 and EGF (note: All factors are human recombinant forms purchased from R & D Systems, Inc., Minneapolis, Minn.).
# A human recombinant disulfide-linked dimer of VEGF165 (MW: 42 kDa)(R & D Systems) as a sole substrate was tested by using the standard in vitro LO catalysis assays as described above for FIG. 4 (Trackman et al., 1981). Curves represent the time course of H2O2 release at 55° C. (a) or 37° C. (b) in the reaction of 0.10 μM LO with 0.45 μM VEGF165. All activity data were corrected for background rates of H2O2 release determined in complete assay mixtures supplemented with the same amounts of LO preincubated with 100 μM BAPN for 15 min at 37° C. The same data were obtained from three separate experiments.
# The standard in vitro LO catalysis assays as described above for FIG. 4 (Trackman et al., 1981) using human recombinant PDGF-AB (R & D Systems) as a sole substrate was tested. […] In FIG. 19, curves represent the time course of H2O2 release at 55° C. (a) and 37° C. (b) in the reaction of 0.11 μM LO with 0.46 μM PDGF-AB, respectively. All activity data were corrected for background rates of H2O2 release determined in complete assay mixtures supplemented with the same amounts of LO preincubated with 100 μM BAPN for 15 minutes at 37° C. The same data were obtained from three separate experiments.
# To analyze the substrate potential of Tat, the standard in vitro LO catalysis assays as described in FIG. 4 (Trackman et al., 1981) was performed at the optimum temperature of 55° C. and at the physiological temperature of 37° C. A recombinant Tat with 9 lysines in a total of 86 amino acids was used as a sole substrate. FIG. 12A represents a dose and temperature-dependent response. Curves represent the time course of H2O2 release at 55° C. (solid) or 37° C. (dotted) in the reaction of 0.10 μM LO with 0.22 (a and d), 0.43 (b and e) and 0.85 (c and f) μM Tat, respectively. All activity data were corrected for background rates of H2O2 release determined in complete assay mixtures supplemented with the same amounts of LO preincubated with 100 μM BAPN for 15 min at 37° C. […]
row,substrate of LO (in words),Molecule
1,substrates of LO,B1
2,substrates of LO,B2
3,substrates of LO,B3

# Same assay, conditions: oxidation by LO in vitro, 37° C. (molar ratio of H2O2 released per molecule of substrate)
row,Oxidized Lysines per Molecule 37° C.,Molecule
1,3.6,B1
2,3.1,B2
3,10.0,B3

# Same assay, conditions: oxidation by LO in vitro, 55° C.
row,Oxidized Lysines per Molecule 55° C.,Molecule
1,14.5,B1
2,7.2,B2
3,18.0,B3
